Data on 1 protein can be found in paper doi:10.1101/2020.03.23.004119 (bioRxiv, 2020).

This series concerns the molecule itself. Description: two-hybrid.

B1: hPFKFB4 mammalian two-hybrid fusion (pBind-PFKFB4 and pAct-PFKFB4) (enzyme, human, UniProt Q16877 1-469, looked up)
chain: MASPRELTQNPLKKIWMPYSNGRPALHACQRGVCMTNCPTLIVMVGLPARGKTYISKKLTRYLNWIGVPTREFNVGQYRRDVVKTYKSFEFFLPDNEEGLKIRKQCALAALRDVRRFLSEEGGHVAVFDATNTTRERRATIFNFGEQNGYKTFFVESICVDPEVIAANIVQVKLGSPDYVNRDSDEATEDFMRRIECYENSYESLDEDLDRDLSYIKIMDVGQSYVVNRVADHIQSRIVYYLMNIHVTPRSIYLCRHGESELNLKGRIGGDPGLSPRGREFAKSLAQFISDQNIKDLKVWTSQMKRTIQTAEALGVPYEQWKVLNEIDAGVCEEMTYEEIQDNYPLEFALRDQDKYRYRYPKGESYEDLVQRLEPVIMELERQENVLVICHQAVMRCLLAYFLDKAAEQLPYLKCPLHTVLKLTPVAYGCKVESIFLNVAAVNTHRDRPQNVDISRPPEEALVTVPAHQ
As for B1, the “fold luciferase expression over the negative controls” value stood at 6 fold.
